± gives the uncertainty stated by the source.
Experiment: self-splicing fitness, log relative to wild type (ln ratio); higher = more splicing; Tetrahymena group I intron in knt gene, E. coli kanamycin selection, DiMSum; sequences stand for … in CUCUCU…GGAGGGAAAAGUUAUCAGGCAUGCACCUGGUAGCUAGUCUUUAAACCAAUAGAUUGCAUCGGUUUAAAAGGCAAGACCGUCAAAUUGCGGGAAAGGGGUCAACAGCCGUUCAGUACCAAGUCUCAGGGGAAACUUUGAGAUGGCCUUGCAAAGGGUAUGGUAAUAAGCUGACGGACAUGGUCCUAACCACGCAGCCAAGUCCUAAGUCAACAGAUCUUCUGUUGAUAUGGAUGCAGUUCACAGACUAAAUGUCGGUCGGGGAAGAUGUAUUCUUCUCAUAAGAUAUAGUCGGACCUCUCCUUAAUGGGAGCUAGCGGAUGAAGUGAUGCAACACUGGAGCCGCUGGGAACUAAUUUGUAUGCGAAAGUAUAUUGAUUAGUUUUGGAGUACUCGUGGUCG
Outline: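 Colonies from six replicate transformations of E. coli BL21(DE3) were pooled and amplicon-sequenced on an Illumina HiSeq 2500. The library placed an intron with all eight P1ex-region nucleotides randomised inside the knt kanamycin-resistance gene on pET-22b(+), and cells grew overnight at 37°C or 30°C on LB agar with or without 25 μg/mL kanamycin (plus 100 μg/mL carbenicillin, 50 μM IPTG, 0.2% rhamnose). Fitness is the DiMSum error-weighted combination of wild-type-normalised replicate fold changes, kanamycin versus none.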

Row | Sequence | self-splicing fitness (ln) (30 °C) | self-splicing fitness (ln) (37 °C)
1 | ACCUAGCAAUAUUACGCCUA | -2.17 ± 0.3 | -2.38 ± 0.3
2 | ACCUAGCAAUAUUACGCGCU | 0.00461 ± 0.076 | -0.0669 ± 0.096
3 | ACCUAGCAAUAUUACGCUGG | -4.07 ± 0.35 | -2.53 ± 0.22
4 | ACCUAGCAAUAUUACGGCGG | -1.36 ± 0.12 | -1.6 ± 0.14
5 | ACCUAGCAAUAUUACGGGAA | -1.62 ± 0.11 | -0.345 ± 0.11
6 | ACCUAGCAAUAUUACGGGCU | -1.51 ± 0.076 | -1.35 ± 0.094
7 | ACCUAGCAAUAUUACGGGGA | -1.11 ± 0.08 | -0.794 ± 0.096
8 | ACCUAGCAAUAUUACGGGGG | -3.84 ± 0.2 | -1.59 ± 0.17
9 | ACCUAGCAAUAUUACGUCAG | -3.93 ± 0.19 | -1.85 ± 0.1
10 | ACCUAGCAAUAUUACGUCGG | -1.07 ± 0.078 | -1.11 ± 0.11
11 | ACCUAGCAAUAUUACGUGCC | -1.63 ± 0.12 | -0.237 ± 0.14
12 | ACCUAGCAAUAUUACGUUUA | -3.18 ± 0.17 | -2.68 ± 0.17
13 | ACCUAGCAAUAUUACGUUUU | -2.61 ± 0.091 | -1.44 ± 0.1
14 | ACGAAGCAAUAUUACGAAAC | -2.87 ± 0.23 | –
15 | ACGAAGCAAUAUUACGAAGG | -2.21 ± 0.17 | -1.4 ± 0.15
16 | ACGAAGCAAUAUUACGACGU | -2.78 ± 0.17 | -1.88 ± 0.19
17 | ACGAAGCAAUAUUACGCAAA | -2.64 ± 0.15 | -0.916 ± 0.13
18 | ACGAAGCAAUAUUACGCGCU | -1.01 ± 0.09 | 0.163 ± 0.12
19 | ACGAAGCAAUAUUACGCUAC | -2.09 ± 0.14 | -2.81 ± 0.15
20 | ACGAAGCAAUAUUACGCUAU | -0.928 ± 0.06 | -1.48 ± 0.078
21 | ACGAAGCAAUAUUACGGACG | -1.55 ± 0.13 | -0.00573 ± 0.18
22 | ACGAAGCAAUAUUACGGAGU | -3.82 ± 0.24 | -3.07 ± 0.29
23 | ACGAAGCAAUAUUACGGCCU | 0.00118 ± 0.097 | 0.0498 ± 0.13
24 | ACGAAGCAAUAUUACGGGCU | -0.943 ± 0.1 | -1.67 ± 0.16

Row | Sequence | self-splicing fitness (ln) (30 °C) | self-splicing fitness (ln) (37 °C)
25 | ACGAAGCAAUAUUACGGGUU | -3.63 ± 0.15 | -2.58 ± 0.14
26 | ACGAAGCAAUAUUACGGUCU | -0.57 ± 0.073 | -0.225 ± 0.097
27 | ACGAAGCAAUAUUACGGUGU | -2.71 ± 0.11 | -1.59 ± 0.095
28 | ACGAAGCAAUAUUACGGUUA | -1.58 ± 0.095 | -0.445 ± 0.079
29 | ACGAAGCAAUAUUACGGUUC | -4.09 ± 0.23 | -0.86 ± 0.15
30 | ACGAAGCAAUAUUACGUAGC | -3.19 ± 0.17 | -1.16 ± 0.14
31 | ACGAAGCAAUAUUACGUAGG | -2.12 ± 0.099 | -1.43 ± 0.15
32 | ACGAAGCAAUAUUACGUAUG | -1.94 ± 0.14 | -2.7 ± 0.23
33 | ACGAAGCAAUAUUACGUCCC | -1.28 ± 0.13 | -1.07 ± 0.16
34 | ACGAAGCAAUAUUACGUCUA | -1.66 ± 0.071 | -1.03 ± 0.061
35 | ACGAAGCAAUAUUACGUGCA | -0.772 ± 0.066 | 0.325 ± 0.084
36 | ACGAAGCAAUAUUACGUGGG | -2.76 ± 0.16 | -2.84 ± 0.17
37 | ACGAAGCAAUAUUACGUUAG | -3.22 ± 0.12 | -2.44 ± 0.16
38 | ACGAAGCAAUAUUACGUUUC | -2.31 ± 0.11 | -2.18 ± 0.17
39 | ACGCAGCAAUAUUACGAAAC | -3.07 ± 0.4 | -1.58 ± 0.21
40 | ACGCAGCAAUAUUACGAAAG | -3.33 ± 0.21 | -2 ± 0.19
41 | ACGCAGCAAUAUUACGAACA | -1.75 ± 0.081 | -1.36 ± 0.086
42 | ACGCAGCAAUAUUACGACCA | -1.49 ± 0.12 | -0.691 ± 0.15
43 | ACGCAGCAAUAUUACGAGAA | -1.64 ± 0.26 | -2.83 ± 0.25
44 | ACGCAGCAAUAUUACGAGCC | -2.97 ± 0.2 | -1.84 ± 0.17
45 | ACGCAGCAAUAUUACGAGGG | -3.71 ± 0.18 | -2.77 ± 0.21
46 | ACGCAGCAAUAUUACGAUUG | -2.96 ± 0.18 | -1.82 ± 0.17
47 | ACGCAGCAAUAUUACGCCCG | -0.491 ± 0.13 | -0.64 ± 0.19
48 | ACGCAGCAAUAUUACGCCUC | -2.83 ± 0.17 | -1.22 ± 0.19

Source: the supplement of paper PMC7877785
